Data: paper PMC5352738, “Characterization of three pyranose dehydrogenase isoforms from the litter-decomposing basidiomycete Leucoagaricus meleagris (syn. Agaricus meleagris)” (Applied Microbiology and Biotechnology, 2016)

Key:
[1] = substrate: O=C1C=CC(=O)C=C1; assay: purified protein; assay type: biochemical, Macropsalliota meleagris; details: electron acceptor, 25 mM D-glucose, 100 mM Na acetate pH 4.0, 30 °C
[2] = substrate: CO[C@H]1O[C@H](CO)[C@@H](O)[C@H](O)[C@H]1O; assay: purified protein; assay type: biochemical, Macropsalliota meleagris; details: electron donor, 0.2 mM ferrocenium, 50 mM Na phosphate pH 7.5, 30 °C

B1: AmPDH2 (Macropsalliota meleagris) (protein)
chain: AITYQHPDDLPSGVDYDFIVAGGGTAGLVVASRLSENSKWNVLVIEAGPSNKDTPETRIPGLADNLPGTRTDWNYTTIPQDALGGRSLNYSRAKVLGGCSTHNGMVYTRGPRDDWNYWAEITDNQALKWDNVLPIMKNTEKFSQDFLDQSMEGHIDPSVHGFDGMLSVVASYTNVSFNNLLLETTRELSDEFPFKLDLNDGKPHGLAWTQYTIDQGAERSSSATSYLESTGDNVHVLVNTHVTRIVSAGNETDFRSVEFAVDANSPKKVLTAKKELILSAGVIASPQILMNSGIGGREELQAIGVDTLIDNPSVGRNLSDQASTLLMFDTTLPNTDYDVAAALTEWDNSRSGPMAYAARLNHLTWVRLPDDKLSGSDPSSGHDSPHIEFQFRQISHQLPPADVPNQVQLPDPDSIGVVLQFSVVNLYSISLGSVTLNNNDPFADPIIDLNMFGDQKDIAILREGVRSARRMFSSQAFKNVVHETVYPPAGVTSDEDLDAFLRTSAVSYLHGVGTLSMSPHSASWGVVNPDFRVKGTTGLRVVDASVIPRAPAGHTQIPVYTFAEHASALIADSYN
notes: full-length pdh2 (600 aa precursor) in pPICZB-His6, His6-tag kept, secreted from Pichia pastoris X33; N-glycosylated, ~65 kDa deglycosylated; covalent FAD
B1 was tested, and the Km [1] was 32.5 ± 1.9 µM, the kcat [1] was 23.4 ± 0.5 s⁻¹ and the kcat/Km [1] was 780000 M⁻¹ s⁻¹. It also gave a Km [2] of 2000 ± 60 µM, a kcat [2] of 85 ± 0.6 s⁻¹ and a kcat/Km [2] of 42500 M⁻¹ s⁻¹.

B2: AmPDH1 (Macropsalliota meleagris) (protein)
chain: AITYQHPDDLPSGVDYDFIVAGGGTAGLVVASRLSENSNWKVLVIEAGPSNKDAFVTRVPGLASTLGAGSPIDWNYTTIPQDGLDGRSLDYPRAKILGGCSTHNGMVYTRGSKDDWNSWAGIIGDQGLGWDSILPAIKKAEKFTQDFTDQSVKGHIDPSVHGFDGKLSVSAAYSNISFNDLLFETTKELNAEFPFKLDMNDGKPIGLGWTQYTIDNHAERSSSATSYLESTGDNVHVLVNTLVTRVLSASGNGTDFRKVEFAVDANSPKKQLEAKKEVIVAGGVIASPQILMNSGIGERKVLQAVGIDTLIDNPSVGKNLSDQGATSVMFDTTLPSTDFDVDAALTEWTNSHTGPLARGARLNHLTFVRLPDDKLNGQDPSSGKNSPHIEFQFAQITPQVPTLGVPKQAPLPAANSYRLLLQLAVVNLYSISRGSISLSDNNPFTYPLIDLNMFKEDIDIAILREGIRSAGRMFSSKAFKNSVNKFVYPPADATSDEDLDAFLRSSTFSYVHGVGTLSMSPKGASWGVVNPDFKVKGTSGLRVVDASVIPHAPAAHTQLPVYAFAEYASALIAKSYN
notes: full-length pdh1 (602 aa precursor) in pPICZB-His6, His6-tag kept, secreted from Pichia pastoris X33; N-glycosylated monomer, ~65 kDa deglycosylated; covalent FAD
Work on B2 yielded a Km [2] of 660 ± 50 µM, a kcat [2] of 41.5 ± 0.8 s⁻¹ and a kcat/Km [2] of 62900 M⁻¹ s⁻¹.

B3: AmPDH3 (Macropsalliota meleagris) (protein)
chain: AITYQHPDDLPSDVDYDFIVAGGGTAGLVVASRLSENPDWNILVIEAGPSNKDAPETRVPGLAGSLPASRTDWNYTTIPQDALGGRSLNYSRAKVLGGCSSHNSMVYTRGSKDDWNHWADITGDQGLSWDSILPVMKKAEKFSKDFSNQSVDGHIDPSMHGHDGLLSVVSSYTNVSFNDLLLETTKELSDEFPFKLDLNDGNPHGLAWTQYTIDHRAERSSSATSYLESTRDNVHVLVNSRVTRIFSAGNGTDFRSVEFAVDANSPKKVLTAKKEVILSAGVIASPQVLMNSGIGGREELQAIGVDTLIDNPSVGKNLSDQAATLLMFDTTLPNTDYDVAAALTEWEDSRSGPMAYGARLNHLTWVRLLDDKLNGSDPSSGKNSPHIEFQFMQISHQLPPADAPNQVKLPDPDSIGAVLLLAVVNLYSVSHGSIILNDNDPFANPMIDLNMFGDQKDIAILREGVRSARRMFSSQAFKDVVNGTVYPPADVTSDEDLDAFLRTSAISYWHGVGTLSMSPQNASWGVVDPDFRVKGTSGLRVVDASVIPYAPAGHTQVPVYTFAEHASVLIAKSYA
notes: full-length pdh3 (600 aa precursor) in pPICZB-His6, His6-tag kept, secreted from Pichia pastoris X33; strongly N-glycosylated, ~65 kDa deglycosylated; standard yellow form with covalent FAD
For B3, the Km [1] was 1880 ± 140 µM, the kcat [1] was 3.57 ± 0.11 s⁻¹ and the kcat/Km [1] was 1890 M⁻¹ s⁻¹. For the same protein, the Km [2] was 950 ± 60 µM, the kcat [2] was 1 ± 0.01 s⁻¹ and the kcat/Km [2] was 1050 M⁻¹ s⁻¹.
